From US20260102474A1 (published 2026)
Residue numbers refer to the chain shown, from its start.

B1: ACE2-M2-FcKO (Fc fusion)
chain: STIEEQAKYFLDYFNVQAEDLFYQSSLASWNYNTNITEENVQNMNNAGDKWSAFLKEQSTYAQRYPLQEIQNLTVKLQLQALQQNGSSVLSEDKSKRLNTILNTMSTIYSTGKVCNPDNPQECLLLEPGLNEIMANSLDYNERLWAWESWRSEVGKQLRPLYEEYVVLKNEMARANHYEDYGDYWRGDYEVNGVDGYDYSRGQLIEDVEHTFEEIKPLYEHLHAYVRAKLMNAYPSYISPIGCLPAHLLGDMWGRFWTNLYSLTVPFGQKPNIDVTDAMVDQAWDAQRIFKEAEKFFVSVGLPNMTQGFWEYSMLTDPGNVQKAVCHPTAWDLGKGDFRILMCTKVTMDDFLTAHREMGRIQYDMAYAAQPFLLRNGANEGFHEAVGEIMSLSAATPKHLKSIGLLSPDFQEDNETEINFLLKQALTIVGTLPFTYMLEKWRWMVFKGEIPKDQWMKKWWEMKREIVGVVEPVPHDETYCDPASLFHVSNDYSFIRYYTRTLYQFQFQEALCQAAKHEGPLHKCDISNSTEAGQKLFNMLRLGKSEPWTLALENVVGAKNMNVRPLLNYFEPLFTWLKDQNKNSFVGWSTDWSPYADQSIKVRISLKSALGDKAYEWNDNEMYLFRSSVAYAMRQYFLKVKNQMILFGEEDVRVANLKPRISFNFFVTAPKNVSDIIPRTEVEKAIRMSRSRINDAFRLNDNSLEFLGIQPTLGPPNQPPVSSGGGGSGGGGSGGGGSEPKSSDKTHTCPPCPAPPVAGPSVFLFPPKPKDTLMISRTPEVTCVVVGVSHEDPEVKFNWYVDGVEVHNAKTKPREEQYNSTYRVVSVLTVLHQDWLNGKEYKCKVSNKQLPSPIEKTISKAKGQPGQPREPQVYTLPPSRDELTKNQVSLTCLVKGFYPSDIAVEWESNGQPENNYKTTPPVLDSDGSFFLYSKLTVDKSRWQQGNVFSCSVMHEALHNHYTQKSLSLSPGK
B2: ACE2-M1-FcKO (Fc fusion)
chain: B1 chain with Y13K, V16H, Q17E, R64M

Experiments:
[1] = target: SARS-COV-2 spike protein on Caco-2 cells infected with the original version of SARS-COV-2 (SARS-COV-2-mNG) (SARS-COV-2, UniProt P0DTC2 14-1273); test: flow
[2] = target: SARS-COV-2 full-length trimeric spike protein, parental (SARS-COV-2, UniProt P0DTC2 14-1213); test: competition

| Binder | EC50 [1] | IC50 [2] |
| --- | --- | --- |
| B1 | 0.48 µg/mL | 9.4 nM |
| B2 | 0.29 µg/mL | 3.8 nM |
